Assay results: article doi:10.1101/731679, “Structural insights into the mechanism of the human soluble guanylate cyclase” (bioRxiv, 2019)

What was measured:
[1] = target: T1, cys-less human sGC α1 subunit with L275C (α1^CL L275C), C-terminal GFP-strep (human, UniProt Q02108 64-690, C176A | C239A | C669S | C455Y | C460G | L275C); assay: cross-linking; disulfide cross-linking of Streptactin-purified cys-less sGC with 0.1 mM Cu(II)(1,10-phenanthroline)3 on ice for 30 min; SDS-PAGE non-reducing or reducing (100 mM DTT); in-gel GFP fluorescence of α1; conditions: both partners purified
T1 construct: soluble guanylate cyclase α1 subunit, human; the cys-rich N-terminal 63 amino acids removed; cys-less background plus L275C; also called α1 L275C; source: HEK293F, transfected (BacMam vector), purified with β1 on Streptactin Beads 4FF; not shown: GFP, C-terminal, kept; strep, C-terminal, kept
T1 sequence (looked up): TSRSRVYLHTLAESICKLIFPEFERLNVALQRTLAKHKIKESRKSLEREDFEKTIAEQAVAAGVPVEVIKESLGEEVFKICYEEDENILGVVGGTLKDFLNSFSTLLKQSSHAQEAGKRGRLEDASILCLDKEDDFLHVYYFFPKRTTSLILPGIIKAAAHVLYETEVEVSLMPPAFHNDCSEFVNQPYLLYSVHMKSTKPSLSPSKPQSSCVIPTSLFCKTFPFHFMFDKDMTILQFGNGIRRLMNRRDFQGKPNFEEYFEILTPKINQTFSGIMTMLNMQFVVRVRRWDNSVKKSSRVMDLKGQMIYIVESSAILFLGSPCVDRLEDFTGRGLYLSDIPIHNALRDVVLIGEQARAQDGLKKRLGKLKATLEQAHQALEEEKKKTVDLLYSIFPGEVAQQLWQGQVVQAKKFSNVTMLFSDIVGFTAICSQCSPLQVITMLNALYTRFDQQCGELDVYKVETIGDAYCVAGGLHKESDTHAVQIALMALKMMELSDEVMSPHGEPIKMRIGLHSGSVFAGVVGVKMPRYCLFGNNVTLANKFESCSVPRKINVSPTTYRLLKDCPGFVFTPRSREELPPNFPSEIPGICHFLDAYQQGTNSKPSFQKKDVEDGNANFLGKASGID

[2] = target: T2, cys-less human sGC α1 subunit with L425C (α1^CL L425C), C-terminal GFP-strep (human, UniProt Q02108 64-690, C176A | C239A | C669S | C455Y | C460G | L425C); assay: as above; conditions: both partners purified
T2 construct: soluble guanylate cyclase α1 subunit, human; the cys-rich N-terminal 63 amino acids removed; cys-less background plus L425C; also called α1 L425C; source: HEK293F, transfected (BacMam vector), purified with β1 on Streptactin Beads 4FF; not shown: GFP, C-terminal, kept; strep, C-terminal, kept
T2 sequence (looked up): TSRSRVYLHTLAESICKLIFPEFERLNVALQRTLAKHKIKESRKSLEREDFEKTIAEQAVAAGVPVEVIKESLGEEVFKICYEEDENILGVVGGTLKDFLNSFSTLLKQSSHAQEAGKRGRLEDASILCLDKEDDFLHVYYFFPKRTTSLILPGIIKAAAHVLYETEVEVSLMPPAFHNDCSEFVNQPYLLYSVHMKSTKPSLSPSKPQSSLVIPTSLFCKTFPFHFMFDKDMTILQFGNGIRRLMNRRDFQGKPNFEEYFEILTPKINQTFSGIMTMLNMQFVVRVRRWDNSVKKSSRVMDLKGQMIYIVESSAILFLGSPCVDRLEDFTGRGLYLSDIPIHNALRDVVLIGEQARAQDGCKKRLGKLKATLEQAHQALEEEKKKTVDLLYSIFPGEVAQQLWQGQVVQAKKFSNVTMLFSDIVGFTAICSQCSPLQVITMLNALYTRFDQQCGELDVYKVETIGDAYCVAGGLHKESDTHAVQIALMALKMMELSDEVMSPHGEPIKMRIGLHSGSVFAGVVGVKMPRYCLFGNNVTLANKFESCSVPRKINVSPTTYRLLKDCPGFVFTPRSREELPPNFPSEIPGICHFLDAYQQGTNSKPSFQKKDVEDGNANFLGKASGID

| Binder | binding result [1] | binding result [2] |
| --- | --- | --- |
| cys-less human sGC β1 subunit with A316C (β1^CL A316C), without tags (natural protein, UniProt Q02153 1-619, looked up, soluble guanylate cyclase β1 subunit, human; cys-less background (C292N) plus A316C; The PDB entries are of the wild-type parent; also called β1 A316C; source: HEK293F, transfected (BacMam vector), purified with α1 on Streptactin Beads 4FF) MYGFVNHALELLVIRNYGPEVWEDIKKEAQLDEEGQFLVRIIYDDSKTYDLVAAASKVLNLNAGEILQMFGKMFFVFCQESGYDTILRVLGSNVREFLQNLDALHDHLATIYPGMRAPSFRCTDAEKGKGLILHYYSEREGLQDIVIGIIKTVAQQIHGTEIDMKVIQQRNEECDHTQFLIEEKESKEEDFYEDLDRFEENGTQESRISPYTFCKAFPFHIIFDRDLVVTQCGNAIYRVLPQLQPGNCSLLSVFSLVRPHIDISFHGILSHINTVFVLRSKEGLLDVEKLENEDELTGTEISCLRLKGQMIYLPECDSILFLCSPSVMNLDDLTRRGLYLSDIPLHDATRDLVLLGEQFREEYKLTQELEILTDRLQLTLRALEDEKKKTDTLLYSVLPPSVANELRHKRPVPAKRYDNVTILFSGIVGFNAFCSKHASGEGAMKIVNLLNDLYTRFDTLTDSRKNPFVYKVETVGDKYMTVSGLPEPCIHHARSICHLALDMMEIAGQVQVDGESVQITIGIHTGEVVTGVIGQRMPRYCLFGNTVNLTSRTETTGEKGKINVSEYTYRCLMSPENSDPQFHLEHRGPVSMKGKKEPMQVWFLSRKNTGTEETKQDDD | binds |  |
| cys-less human sGC β1 subunit with L365C (β1^CL L365C), without tags (natural protein, UniProt Q02153 1-619, looked up, soluble guanylate cyclase β1 subunit, human; cys-less background (C292N) plus L365C; The PDB entries are of the wild-type parent; also called β1 L365C; source: HEK293F, transfected (BacMam vector), purified with α1 on Streptactin Beads 4FF) MYGFVNHALELLVIRNYGPEVWEDIKKEAQLDEEGQFLVRIIYDDSKTYDLVAAASKVLNLNAGEILQMFGKMFFVFCQESGYDTILRVLGSNVREFLQNLDALHDHLATIYPGMRAPSFRCTDAEKGKGLILHYYSEREGLQDIVIGIIKTVAQQIHGTEIDMKVIQQRNEECDHTQFLIEEKESKEEDFYEDLDRFEENGTQESRISPYTFCKAFPFHIIFDRDLVVTQCGNAIYRVLPQLQPGNCSLLSVFSLVRPHIDISFHGILSHINTVFVLRSKEGLLDVEKLENEDELTGTEISCLRLKGQMIYLPEADSILFLCSPSVMNLDDLTRRGLYLSDIPLHDATRDLVLLGEQFREEYKCTQELEILTDRLQLTLRALEDEKKKTDTLLYSVLPPSVANELRHKRPVPAKRYDNVTILFSGIVGFNAFCSKHASGEGAMKIVNLLNDLYTRFDTLTDSRKNPFVYKVETVGDKYMTVSGLPEPCIHHARSICHLALDMMEIAGQVQVDGESVQITIGIHTGEVVTGVIGQRMPRYCLFGNTVNLTSRTETTGEKGKINVSEYTYRCLMSPENSDPQFHLEHRGPVSMKGKKEPMQVWFLSRKNTGTEETKQDDD |  | binds |
